*1 amine or outer side, *2 acyl side, *3 side chain or, on linkers, in order; H or OH if unused. Side-chain parts run from the residue outwards. The star is where a group is joined. C18 diacid = O=C(O)CCCCCCCCCCCCCCCCC(=O)*; γGlu = O=C(O)[C@H](CCC(=O)[*:2])N[*:1]; Pentanoyl = CCCCC(=O)*; AEEA = NCCOCCOCC(=O)O; Butyryl = CCCC(=O)*
T1: CRF1R receptor (UniProt P34998 24-415, limits assumed)
T1 sequence (looked up): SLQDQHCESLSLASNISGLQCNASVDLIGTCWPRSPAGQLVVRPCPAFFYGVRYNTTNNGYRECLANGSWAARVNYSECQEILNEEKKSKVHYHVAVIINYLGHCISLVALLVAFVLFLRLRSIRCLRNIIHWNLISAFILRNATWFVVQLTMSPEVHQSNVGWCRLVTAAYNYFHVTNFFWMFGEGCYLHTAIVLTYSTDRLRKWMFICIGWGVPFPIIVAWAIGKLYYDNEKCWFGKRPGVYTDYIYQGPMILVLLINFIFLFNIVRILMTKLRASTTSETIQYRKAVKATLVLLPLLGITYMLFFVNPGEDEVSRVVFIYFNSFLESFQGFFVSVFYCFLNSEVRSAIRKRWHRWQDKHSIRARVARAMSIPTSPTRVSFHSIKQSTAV


Assays:
CRF1R receptor = target: T1, CRF1R receptor; assay: cell-based or functional assay
[1] = target: human corticotropin-releasing factor 2a (CRF2a receptor) (human), Q13324; assay: cell-based or functional assay
human corticotropin-releasing factor 2a (CRF2a receptor) (human), Q13324, sequence (Q13324 20-411): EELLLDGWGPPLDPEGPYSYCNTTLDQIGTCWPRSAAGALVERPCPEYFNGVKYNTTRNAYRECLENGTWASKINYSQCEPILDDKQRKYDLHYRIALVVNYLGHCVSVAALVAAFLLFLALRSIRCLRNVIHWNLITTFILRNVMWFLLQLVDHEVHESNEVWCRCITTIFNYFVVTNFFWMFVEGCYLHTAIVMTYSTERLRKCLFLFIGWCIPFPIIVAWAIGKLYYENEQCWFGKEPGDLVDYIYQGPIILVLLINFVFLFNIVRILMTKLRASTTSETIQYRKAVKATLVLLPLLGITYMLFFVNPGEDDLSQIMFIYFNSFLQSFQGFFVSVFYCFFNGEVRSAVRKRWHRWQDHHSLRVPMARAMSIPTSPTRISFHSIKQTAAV

Row | Emax (% I) (CRF1R receptor) [%] | EC50 [nM] (cAMP) [1] | Binder
1 | 4 | 0.49 | Pentanoyl-VLSLDVPIKLK([AEEA-AEEA-γGlu-C18 diacid])KILLEQEKQKKQREQAETNKQILAQV-NH2 (SMILES CCCCC(=O)N[C@H](C(=O)N[C@@H](CC(C)C)C(=O)N[C@@H](CO)C(=O)N[C@@H](CC(C)C)C(=O)N[C@@H](CC(=O)O)C(=O)N[C@H](C(=O)N1CCC[C@H]1C(=O)N[C@H](C(=O)N[C@@H](CCCCN)C(=O)N[C@@H](CC(C)C)C(=O)N[C@@H](CCCCNC(=O)COCCOCCNC(=O)COCCOCCNC(=O)CC[C@H](NC(=O)CCCCCCCCCCCCCCCCC(=O)O)C(=O)O)C(=O)N[C@@H](CCCCN)C(=O)N[C@H](C(=O)N[C@@H](CC(C)C)C(=O)N[C@@H](CC(C)C)C(=O)N[C@@H](CCC(=O)O)C(=O)N[C@@H](CCC(N)=O)C(=O)N[C@@H](CCC(=O)O)C(=O)N[C@@H](CCCCN)C(=O)N[C@@H](CCC(N)=O)C(=O)N[C@@H](CCCCN)C(=O)N[C@@H](CCCCN)C(=O)N[C@@H](CCC(N)=O)C(=O)N[C@@H](CCCNC(=N)N)C(=O)N[C@@H](CCC(=O)O)C(=O)N[C@@H](CCC(N)=O)C(=O)N[C@@H](C)C(=O)N[C@@H](CCC(=O)O)C(=O)N[C@H](C(=O)N[C@@H](CC(N)=O)C(=O)N[C@@H](CCCCN)C(=O)N[C@@H](CCC(N)=O)C(=O)N[C@H](C(=O)N[C@@H](CC(C)C)C(=O)N[C@@H](C)C(=O)N[C@@H](CCC(N)=O)C(=O)N[C@H](C(N)=O)C(C)C)[C@@H](C)CC)[C@@H](C)O)[C@@H](C)CC)[C@@H](C)CC)C(C)C)C(C)C) [SEQ ID NO 96]
2 | 5 | 0.76 | Butyryl-VLSLDVPIKLK([AEEA-AEEA-γGlu-C18 diacid])KILLEQEKQKKQREQAETNKQILAQV-NH2 (SMILES CCCC(=O)N[C@H](C(=O)N[C@@H](CC(C)C)C(=O)N[C@@H](CO)C(=O)N[C@@H](CC(C)C)C(=O)N[C@@H](CC(=O)O)C(=O)N[C@H](C(=O)N1CCC[C@H]1C(=O)N[C@H](C(=O)N[C@@H](CCCCN)C(=O)N[C@@H](CC(C)C)C(=O)N[C@@H](CCCCNC(=O)COCCOCCNC(=O)COCCOCCNC(=O)CC[C@H](NC(=O)CCCCCCCCCCCCCCCCC(=O)O)C(=O)O)C(=O)N[C@@H](CCCCN)C(=O)N[C@H](C(=O)N[C@@H](CC(C)C)C(=O)N[C@@H](CC(C)C)C(=O)N[C@@H](CCC(=O)O)C(=O)N[C@@H](CCC(N)=O)C(=O)N[C@@H](CCC(=O)O)C(=O)N[C@@H](CCCCN)C(=O)N[C@@H](CCC(N)=O)C(=O)N[C@@H](CCCCN)C(=O)N[C@@H](CCCCN)C(=O)N[C@@H](CCC(N)=O)C(=O)N[C@@H](CCCNC(=N)N)C(=O)N[C@@H](CCC(=O)O)C(=O)N[C@@H](CCC(N)=O)C(=O)N[C@@H](C)C(=O)N[C@@H](CCC(=O)O)C(=O)N[C@H](C(=O)N[C@@H](CC(N)=O)C(=O)N[C@@H](CCCCN)C(=O)N[C@@H](CCC(N)=O)C(=O)N[C@H](C(=O)N[C@@H](CC(C)C)C(=O)N[C@@H](C)C(=O)N[C@@H](CCC(N)=O)C(=O)N[C@H](C(N)=O)C(C)C)[C@@H](C)CC)[C@@H](C)O)[C@@H](C)CC)[C@@H](C)CC)C(C)C)C(C)C) [SEQ ID NO 95]

— patent US20260001928A1 (CORTERIA PHARMACEUTICALS, priority 2022, published 2026)
